Data on 1 substance can be found in PMC6171931.

For this assay, the target named is HCV NS5B (RNA-dependent RNA polymerase), JFH1 (Hepatitis C virus (JFH1)). Nature of the assay: proximity ligation.

In turn, “ATG5-12 conjugate (from UniProt Q9H1Y0 1-275; O94817 1-140) (complex)” registered a PLA interaction signals per infected cell (signals per infected cell) of 380.
